The text below walks through data of the nanobody polyreactivity screen of Harvey et al. (2022).

This data set in a line: yeast display, Sf9 membrane polyspecificity reagent, FACS + sequencing; frameworks hold sequencing errors. Summed up:
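Nanobodies from a synthetic yeast display library (Saccharomyces cerevisiae BJ5465), induced 36–48 hours with galactose, were stained 1 hour at 4 °C with 10% biotinylated, detergent-solubilized Sf9 membrane reagent, enriched on streptavidin microbeads, then FACS-sorted. Anti-HA (expression) and streptavidin (reagent binding) fluorescence set low and high (top ~1%) gates. Polyreactivity labels come from the gate of origin. Genes were colony-PCR amplified, MiSeq 2 × 250 sequenced and filtered by CDR length.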
Turning to “QVQVVESGGGLVQAGGSLRLICAASGSTSWSYAMGWYRQAPGKERELVAAITRTGSTNYADSVKGRFTISRDNAKNTVYLQMNSLKPEDTAVYYCVYATLRYDYWGQGTQVTVSS”, the “polyreactivity (PSR sort gate)” value is recorded as “low polyreactivity”.

As for “QVQLVESGGGLDQARGSLRLSCAASGRTSLRYAMGWYRQAPWKERELVAAITSSGATTYYADSVKGRFTISRDNAKNTVYLQMNSLKPEDTAVYYCAAVYSAKRGSGGFGYWGQGTQVTVSS”, the “polyreactivity (PSR sort gate)” value was “high polyreactivity”. “QVQLVESGGGLVQAGGSLRLSCAASGSIFYLNARGWYRQAPGKERELVASINRGGITYYADSVKGRFTISRDNAKNTVYLQMNSLKPEDTAVYYCAARSPYVSYRSNYYYWGQGTQVTVSS”: the “polyreactivity (PSR sort gate)” value is “high polyreactivity”.

“QVQLVESGGGLVQAGGSLRLSCAASGSIFYGYAMAWYRQAPGKERELVAAITRSGGSTYYADSVKGRFTISRDNAKNTVYLQMNSLKPEDTAVYYCAAVSRSRRMDYWGQGTQVTVSS”: the “polyreactivity (PSR sort gate)” value is on record as “high polyreactivity”. The value for “QVQLVESGGGLVQAGGSLRLSCAASGITFNYYVMGWYRQAPGKERELVAAIRRGGSTNYADSVKGRFTISRDNAKNPVYLQMNSLKPEDTAVYYCAARTYRGLAYDYWGQGTQVTVSS” was “high polyreactivity”.

Consider “QVQLVESGGGLVQAGGSLRLSCAASGSTFYSYAMGWYRQAPGKEREFVAVISWSGGRTRYADSVKGRFTISRDNAKNTVYLQMKSVKPEDTAVYYCNARKWGYSPHRKGDRHFEYWGQGTQVTVSS”, for which the “polyreactivity (PSR sort gate)” value is on record as “low polyreactivity”. Under “QVQLLESGGGLVQAGGSLRLSCAASGSTFGYYAMGWYRQAPGKERELVAAITRSGSSTYYADSVKGRFTISRDNAKNTVYLQMNSLKPEDTAVYYCAAEARYWIYEYDYWGQGTQVTGSS” stands “high polyreactivity”; under “QDQLVESGGGLVQAGVSLLLICAASGSTSSVYAMGWYRQAPGKERELVAAIRWSTGSTYYADSVKGLFTISRDNAKNTVYLHMNCLKPEETALYYCAAEVYTSVHIYSWYYYWGQGTKVTVSS”, “high polyreactivity”. As to “QVQLVESGGGLVQAGGSLRLSCAASGRIFRPYTMGWYRQAPGKERELVAAITSGSSTNYADSVKGRFTISRDNAKNTVYLHMNSLKPEDTAVYYCAVKVRIFASYYPFYYWGQGSQVTVSS”, the “polyreactivity (PSR sort gate)” value is reported as “high polyreactivity”. In the case of “QVQLVESGGGLVQAGGSLRLSCAASGYIFAPYAMGWYRQAPGKERELVAAISSGGSTYYADSVKGRFTISRDNAKNTVYLQKNSQKPEDPAVYYCAKRYIYSYYWGQGTQVTVSS”, the “polyreactivity (PSR sort gate)” value is on record as “high polyreactivity”.

As for “QVQLVESGGGLVQAGGSLRLSGAASGRIFGTYDMGWYRQAPGKERELVAAINRSAGSTYYADSVKGRITISRDNAKNTVYLQMNSLKPEDTAVYYCAKQPLLFQYLEYDYWGQGTQVTVSS”, the “polyreactivity (PSR sort gate)” value is “low polyreactivity”.

“QVQLVESGGGLVHAGGRLRLSCAAYGITFSSYAMGWYRQAPGKERELVAAITWSGTSTYYADSVKGRFTISRDNAKNTVYLQMNSLKPEYTAVSYCADEAGAPFSISHDYWGQGTQVTVSS”: the “polyreactivity (PSR sort gate)” value is reported as “low polyreactivity”.

Consider “QVQLVESGGGLVQAGGSRRLSCAASGLTFANYVMGWYIQAPGKERELVAAISRSGGSTYYADSVKGRFTISRDNAKNTVYLQMNSLNPEDTAVYYCAAAALDPKGSRYDYWGQGTQVTVSS”, for which the “polyreactivity (PSR sort gate)” value is listed as “low polyreactivity”.

On to “QVQLVESGVGLVQPGGILRLSCAASGIIFTQYAMGWNIQAPGKESELVAAMSGSGGSTYYADSVKGRFTISRDNAKNTVYLQMNSLKPEDTAVFYCAAGGVRGPGVESRMFYLGQGTQVTVSS”, for which the “polyreactivity (PSR sort gate)” value is “high polyreactivity”.

Consider “QVQLVESGGGLVQAGGSLSLSSAASGRTFSGYAMGWYRQAPGKERELVAAIDRGDGTNYADSVKGRFTISRDNAKNTVYLQMNSLKPEDTAVYYCAADYSYGSTSHTYTGFDYWGQGTQVTVSS”, for which the “polyreactivity (PSR sort gate)” value is “low polyreactivity”.

As to “QVQLVESGGGLVQAGGSLRLSCAASGITTRTYAMGWYRQAPGKDRELVAAISDSGDRTYYADSVKGRCTISRDKAKNTVYLQMNSLKPEDTAVYYCAVDAPGPRGEYWGQGTKVTVSS”, the “polyreactivity (PSR sort gate)” value is on record as “low polyreactivity”. For “QVQLVESGGGLVQAGGSLRLSCAASGFIFYYAMGWYRQAPGKERELVAGITESDGSTNYADSVKGRFTISRDNAKNTVYLQMNSLKTEVTAVYYCAKDASSLRFDYWGQGTQVTVSS”, the “polyreactivity (PSR sort gate)” value is listed as “low polyreactivity”. As for “QVQLVESGGGLVQAGGSLRLSCAASGSTFPWYVMGGYRQAPGKERELVAAISLSGGRTYYADSVMGRFTISRDNAKNRVYLQMNSLKPEDTAVYYCAAEFKLVSHTYYYWGQGTQVTVSS”, the “polyreactivity (PSR sort gate)” value is on record as “low polyreactivity”.

Turning to “QVQLVESGGCLVQAGGSLRLSCAASGSIFDGNTMGWYRQAPGKERELVAAITWSGGSTYYADSVKGRFTISRDNAKNTVYLQMNSLKPEDTAVYYCAAEYWDSDPYDYWGQGTQVTVSS”, the “polyreactivity (PSR sort gate)” value was “low polyreactivity”.

With “QVQLVESGGGLVQAGGSLRLSCAASGFTLDDYAMGWYRQAPGKEREWVAAITSGGTYADSVKGRFTISRDNAKNTVYLQMNSLKPEDTAVYYCNAGNNVVVDYDYWGQGTQVTVSS”, the “polyreactivity (PSR sort gate)” value is “low polyreactivity”. As to “QDQLVESGGGLVQAGGRLRLSCAAYGRIFRRYAMGWYRQAPGKEREFVAAISSGGSTYYADSVKVRFTISRDNAKKYRLFTAEQPETGRYRGLLLRCVRYDVNVYDYWGQGTQVTVSS”, the “polyreactivity (PSR sort gate)” value is “low polyreactivity”. Under “QVQLVESGGGLVQAGGSLRLSCAASGSTFLTNTMGWYRQAPGKERELVAIISRSSGTTYYSDSVKGRFTISRDNAKNTVYLQMNSLKPEDTAVYYCAKRYRRAYPYSKNDYWGQGTQVTVSS” stands “high polyreactivity”; under “QVQLVESGGGLVQAGGSLRLSCAASGNIFYRYAMGWYRQAPGKERELVAAISGNSGNTYYADSVKGRFTISRDNAKNSVYLQMNSLKPEDTAVYYCAARPYYSYAGSGGYWGQGTQVTLSS”, “high polyreactivity”; under “QVQLVESGGGLVQAGGSLRLSCAASGSIFGYNAMGWYRQAPGKERELVAVITRSDGSTYYADSVKGRFTISRDNAKNTVYLQMNSLKPEDTAVYYCNAETHVYYWGVVIYEYNYWGQGTQVTVSS”, “low polyreactivity”.

For “QVQLVESGGGLVQAGGSLRLSCAASGSTFPFNAMGWYRQAPGKERELVAGIRSRGGSTYYADSVKGRFTISRDNAKNTVYLQMNSLKPEDTAVYYCAKVYKDRDDLFYYWGQGTQVTVSS”, the “polyreactivity (PSR sort gate)” value is reported as “low polyreactivity”.

On to “QLQLVESGGGLVQAGGSLRLSCAASGNIFNYNAMGWYRQAPGKERELVAAISFSGGSTYYADSVKGRFTISRDNAQNTVYLQMNSLKPEDTAVYYCAKAERNYFEDWGQGTQVTVSS”, for which the “polyreactivity (PSR sort gate)” value is on record as “high polyreactivity”. For “QVQLVESGGGLVQAGGSLRLSCAASGSTFSSYAMGWYRQAPGKERELVAAISTRSGSTYYADSVKGRFTISRDNAKNTVYLQMNSLKPEDTAVYYCAADGFYYDDGYWGQGTQVTVSS”, the “polyreactivity (PSR sort gate)” value is given as “low polyreactivity”.

Regarding “QVQLVESGGGLVQAGGSLRISCAASGRIFDNYAMGWNRQAPGKERELVAAISVSGDSTYYADSVKGRFTISRDNAKNTVYLQMNSLKPEDTAVYYCAVDPDSYWYLTWADEMYYWGQGTQVTVSS”, the “polyreactivity (PSR sort gate)” value was “high polyreactivity”. Under “QDQLVESGGGLVQAGGSLRLSCAASGRIIQYYDMGWYRQAPGKERELVAAITSNGGRTYYADSVKGRFTISRDNAKNTVFLLMNILKPEDTAVYYCAKTFDFSAYPPLTLKYGYWGQGTQVTVSS” stands “high polyreactivity”.

On to “QVQHVESGGGLVQAGGSLRLSCAASGAIFWGYAMGWYRQAPGKERELVATISWTGGSTYYADSVKGRFTISRDNAKNTVYLQMNSLKPEDTAVYYCAKVIIHYYYLVNLVDVDYWGQGTQVTVSS”, for which the “polyreactivity (PSR sort gate)” value is “low polyreactivity”.

“QVQLVESGGGLVQAGGSLRLSCAASGSIFDDYAMGWYRQAPGKERELVAAISSSGTSTYYADSVKGRFTISRDNAKNTVYLQMNSLKPEDTAGYYCAARSAILKSGYLMDYWGQGTQVTVSS”: the “polyreactivity (PSR sort gate)” value was “low polyreactivity”. Regarding “QVQLVESGGGLVQAGGSLRLSCAASGLIFSVYAMGWYRQAPGKVRELVAAITGSGGRTYYADSVKGRFTISRDNAKNYVYLQMNSLKPEDTAVYYCAATVSSYPYYRYYSWGQGTQVTVSS”, the “polyreactivity (PSR sort gate)” value is on record as “high polyreactivity”. As for “QVQLVESGGGLVQAGGSLRLSCAASGRIFEDYAMGWYRQAPGKERELVAAISSGGSTYADSVKGRFTISRDNAKNTVYLQMNSLKPEDTAVYYCAAYYRRSTYYYWGQGTQVTVSS”, the “polyreactivity (PSR sort gate)” value is given as “high polyreactivity”. Regarding “QVQLVESGGGLVQAGGSLRLSCAASGRISYANAMGWYRQAPGKERELVASITYSAGSTYADSVKGRFTISRDNAKYTVYLQMNSLKPEDSAVYYCNAYHVIYARESDYWGQCTQVTVSS”, the “polyreactivity (PSR sort gate)” value is “low polyreactivity”. For the sequence “QVQLVESGGGLVQAGGRLRLSCAASGSTFAWSAMGWYRQAPGKERELVAGIWNTGRTYYADSVKGRFTISRDNAKNTVYLQMNSLKPEDTAVYYCAALYNSPNVTYYYWGQGTQVTVSS”, the “polyreactivity (PSR sort gate)” value was “high polyreactivity”. Turning to “QVQLVESGGGLVQAGGSLRLSCAASGRTFGWYAMGSYRQAPGKERELVAAITSGTSTYYADSVKGRFTISRDNAKYTVYLQMNSRKPEDTAVYYCAVDRGISVGYTRFDYWGQGTQVTVSS”, the “polyreactivity (PSR sort gate)” value is reported as “low polyreactivity”. As to “QVQLVESGGGLVQAGGSLRLSCAASGSTFQYNAMGWYRQAPGKERELVARISSSGGRTYYADSVKGRFTISRDNAKNTVYLQMNSLKPEDTAVYYCNKGYPYVAYDYWGQGTQVTVSS”, the “polyreactivity (PSR sort gate)” value is given as “high polyreactivity”. As for “QVQLVESGGGLVQAGGSLRLICAASGRIFYYYTMGWYRQAPGKERELVDTIRSGGSTYYADSVKGRFTISRDNAKNTVYLQMNSLKPEDTAVYYCAAAYRTGRGYGFDYWGQGTQVTVSS”, the “polyreactivity (PSR sort gate)” value is on record as “high polyreactivity”.

In the case of “QVQLVESAGGLVQAGGSLRVICAASASTSVHNAMGWYRQAPGKERELVAAITSDGSTNYADSVKGRFTISRDNEKNTVYLLMYSLEPEDTAFYYCAALGWTYYVGYVSYSYGYWGQGTQVTVSS”, the “polyreactivity (PSR sort gate)” value was “low polyreactivity”. Consider “QVQLVESVGGLVQAGGSLRLSCAASGYIFATNAMGWYRQAPGKERELVAAITRSGGRTYYADSVKGRFTISRDNAKNTVYLQMNSLKPEDTAVYYCAAARPTNIYYYWGQGTQVTVSS”, for which the “polyreactivity (PSR sort gate)” value is “high polyreactivity”. The value for “QVQLVESGGVLVQAGGSLRLSCAASVGIFDYYTMGWYRQAPGKERELVAAISASGGITYYADSVKGRFTISRDNANNTVYLQMNSMKPEDTAVYYCAAGVRNDYWWYYYWGQGTQVTVSS” was “high polyreactivity”.
